Data taken from patent US20190022241A1 (AbbVie / Abbott, published 2019).

T1: SEZ6 N1 (amino acids 1-70) on yeast (human, UniProt Q53EL9 20-89)
T1 construct: yeast display
T1 sequence: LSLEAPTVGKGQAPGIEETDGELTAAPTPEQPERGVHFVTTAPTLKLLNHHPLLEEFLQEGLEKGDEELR

B1: SC17.93 (antibody, V domains shown)
VH: QVQLQQPGAELVKPGASVMLSCKASGYTFTSYWVHWVKQRPGQGLEWIGVINPRNGRNNYNEKFKTKATLTVDKSSSTAYMQLSSPTSEDSAVYYCAREDYDGGDYAMDYWGQGTSVTVSS
VL: DIVMSQSPSSLAVSVGEKVTMTCKSSQSLLYSSNQKNYLAWYQQKPGQSPKLLIYWASTRESGVPDRFIGSGSGTDFTLTISSVKAEDLAIYYCQQYYRYPLTFGAGTKLELK
notes: murine mAb
B2: SC17.156 (antibody, V domains shown)
VH: QVTLKESGPGILQPSQTLSLTCSFSGFSLSTSGMGVSWIRKTSGKGLEWLAHIFWDDDKWYNPSLKSRLTISKATSSNQVFLILTSVDTADTATYYCATFYGLYFAYWGQGTTLTVSS
VL: DVVMTQSPLSLPVSLGDQASISCRSSQSIVHSNGNTYLEWYLQKPGQSPKLLIYKVSNRFSGVPDRFSGSGSGTDFTLKISRVEAEDLGVYYCFQGSHVPPTFGGGTKLEIK
notes: murine mAb
B3: SC17.121 (antibody, V domains shown)
VH: EVQLQQSGPELMKPGASVKMSCKASGYTFTDHNIHWVKQHQGKSLEWIGEINPNTGGTGYNQKFQGKATMTVDKSSSTAYMELRSLTSEDSAVYYCVRGLYFFDYWGQGTTLTVSS
VL: QIVLTQSPAIMSASPGEKVTMTCSASSSVSYMHWYQQKSGTSPKRWIYDTSKLASGVPARFSGSGSGTSYSLTISSMETEDAATYYCQQWSNTPPTFGSVTKLEIK
notes: murine mAb
B4: SC17.191 (antibody, V domains shown)
VH: EVQLQQSGPELMKPGASVKMSCKASGYTFTDYNMHWVKQNQGKSLEWIGEINPNTGGTGYNQKFKDKATLTVDKSSSTAYMELRSLTSEDSAVYYCARIPSLRRYYFDYWGQGTTLTVSS
VL: QIVLTQSPAIMSASPGEKVTMTCSASSSVSYMHWYQQKSGTSPKRWIYDTSKLASGVPARFTGSGSGTSYSLTISSMEAEDAATYYCQQWSSSPPTFGAGTKLELK
notes: murine mAb
B5: SC17.102 (antibody, V domains shown)
VH: EVQLQQSGPELMKPGASVKMSCKASGDTFTDYNIHWVKQNQGKSLEWIGEVNPNIGGIGYNQKFKGKATLTVDKSSSTAYMELRSLTSEDSAVYYCAMGRWYFDVWGAGTTVTVSS
VL: QIVLTQSPAIMSASPGEKVTMTCSASSSVSYMHWYQQKSGTSPKRWIYDTSKLASGVPPRFSGRGSGTSYSLTISSMEAEDAATYYCQHWSSNPPTFGAGTKLEMK
notes: murine mAb
B6: SC17.193 (antibody, V domains shown)
VH: QVTLKESGPGILQPSQTLSLTCSFSGFSLITYGIGVGWIRQPSGKGLEWLAHIWWNDNKYYNTALKSRLTISKDTSNNQVFLKIANVDTADTATYYCARMVYYDYDGGFAYWGQGTLVTVSA
VL: DLVLTQSPASLAVSLGQRATISCRASESVSTSGYSYMHWYQQKPGQPPKLLIYLASNLESGVPARFSGSGSGTDFTLNIHPVEEEDATTYYCQHSRELPYTFGGGTKLEIK
notes: murine mAb
B7: SC17.56 (antibody, V domains shown)
VL: DIVMSQSPSSLAVSVGEKVTMSCKSSQSLLYSSNQKNYLAWYQQKPGQSPKLLIYWASTRESGVPDRFTGSGSGTDFTLTISSVKAEDLAVYFCQQYYNYPYTFGGGTKLEIK
V domain: QIQLVQSGPELKKPGETVKISCKASGYTFTNYGMNWVKQAPGKGLKWMAWINTYTGEPTYADDFKGRFAFSLETSASTASLQIINLKNEDTATYFCARIGDSSPSDYWGQGTTLTV
notes: murine mAb
B8: SC17.81 (antibody, V domains shown)
VH: EVQLQQSGAELVKPGASVKLSCTASGFNINDTYYHWLKQRPEQGLEWIGRIDPANVNTKYDPKFQGKATLTADTSSNTAYLQLSSLTSEDTAVYYCGRGNAYWGQGTLVTVSA
VL: DIVMSQSPSSLTVSVGEKVTLSCKSSQSLLYSTNQKIYLAWYQQKPGQSPKLLIYWASTRESGVPDRFTGSGSGTDFTLAISNVKAEDLAVYYCQQYYSYPYTFGGGTKLEIK
notes: murine mAb
B9: SC17.114 (antibody, V domains shown)
VH: EVQLQQSGPEMVKPGASVKISCKASGYTFTDYYMHWVKQSHGKSLEWIGRVNTNNGGTSYDQKFEGKATLTVDKSSSTAYMELNSLTSEDSAVYYCVIPAWFAYWGQGTLVTVSA
VL: DVVMTQSPLSLPVSLGDQASISCRSSQSLVHSNGNTYLHWYLQKPGQSPKLLIYKVSSRFSGVPDRFSGSGSGTDFTLKISRVEAEDLGVYFCSQSTHVPFTFGSGTKLEIK
notes: murine mAb
B10: SC17.151 (antibody, V domains shown)
VH: EVQLQQSGTVLARPGASVKMSCKASGYTFTSYWMHWVKQRPGQGLEWIGAIYPGKNDTTYNQKFKGKAKLTAVTSASTLYMELSSLTNEDSAVYYCTRSGKGYFAYWGQGTLVTVSA
VL: DIVLTQFPASLAVSLGQRATIPCRASESVDSYGNSFMHWFQQKPGQPPKLLIYRASNLESEIPARFSGSGSGTDFTLTINPVEADDVATYYCQQSHEDPYTFGGGTKMEIK
notes: murine mAb
B11: SC17.199 (antibody, V domains shown)
VH: EVQLQQSGTVLARPGASVRMSCKASGYTFTSYWMHWVKQRPGQGLEWIGAIYPGNSDTSYNHKFKGKAKLTAVTSASTAYMELSSLTNEDSAVYYCTRSGTGWFAYWGQGTLVTVS
VL: DIVLTQSPASLAVSLGQRATISCRASESVDSYGNSFMHWYQQKPGQPPKPLIYRASNLESGIPARFSGSGSRTDFTLTINPVEADDVATYYCQQSNEDPYTFGGGTKLEIK
notes: murine mAb
B12: SC17.120 (antibody, V domains shown)
VH: EVQLEQSGTVLARPGASVKMSCKASGYTFTSYWMHWVKQRPGQGLEWIGAFYPGNSGTYYNQKFKDKAKLTAVTSASTAYMELSSLTNEDSAVYYCSRSGSGRFAYWGQGTLVTVSA
VL: DIVLTQSPASLAVSLGQRATISCRASESVDSYGNSFMHWYQQKPGQPPKVLIYRASNLESGIPARFSGSGSRTDFTLTINPVEDEDVATYYCQQSNEDPYTFGGGTKLEIK
notes: murine mAb
B13: SC17.9 (antibody, V domains shown)
VH: QVQLQQPGAEIVRPGASVKLSCKASGYTFTDYWMNWVKQRPGQGLEWIGAIDPSDSYTSYNPKFKGKATLTVDTSSSSAYMQLSSLTSEDSAVYFCARRGTPGKPLVYWGQGTLVTVSA
VL: DIVMSQSPSSLAVSVGEKVTMSCKSSQSLLYSSNQKNYLAWYQQKPGQSPKLLIYWASTRESGVPDRFTGSGSGTDFTLTISSVKAEDLAVYFCQQYYNYPYTFGGGTKLK
notes: murine mAb

The binders below were run against T2, SEZ6 Sushi Domain 4 (amino acids 750-813) on yeast (human, UniProt Q53EL9 769-832) (assay: yeast display, flow cytometry;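 also: antibody binding to individual SEZ6 domains displayed on yeast, measured by flow cytometry, antibody at 50 nM purified or hybridoma supernatant diluted 1:2, 90 min on ice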).
T2 construct: yeast display

| Binder | binding result |
| --- | --- |
| B1 | binds |
| B2 | binds |
| B3 | binds |
| B4 | binds |
| B5 | binds |
| B6 | binds |

The binders below were run against T1, SEZ6 N1 (amino acids 1-70) on yeast (assay: yeast display, flow cytometry;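 also: antibody binding to individual SEZ6 domains displayed on yeast, measured by flow cytometry, antibody at 50 nM purified or hybridoma supernatant diluted 1:2, 90 min on ice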).

| Binder | binding result |
| --- | --- |
| B7 | binds |
| B8 | binds |
| B9 | binds |
| B10 | binds |
| B11 | binds |
| B12 | binds |
| B13 | binds |
